These are literature values, as cited in PMC10558290.

For orientation: Kd means the free concentration of one partner at which half of the binding sites on the other are occupied at equilibrium, for simple one-to-one binding.

Read-outs that look alike come from different tables or passages of the source.

Data set [1] has as its target G-actin (Saccharomyces cerevisiae) (UniProt P60010).
Data set [2] has the same target. This is another data set of the same source.

Profilin Pfy1, sequence (P07274 whole entry): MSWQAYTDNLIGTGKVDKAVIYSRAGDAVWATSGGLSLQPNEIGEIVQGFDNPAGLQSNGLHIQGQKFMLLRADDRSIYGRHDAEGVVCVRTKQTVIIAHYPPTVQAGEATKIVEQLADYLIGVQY
Srv2, sequence (P17555 whole entry): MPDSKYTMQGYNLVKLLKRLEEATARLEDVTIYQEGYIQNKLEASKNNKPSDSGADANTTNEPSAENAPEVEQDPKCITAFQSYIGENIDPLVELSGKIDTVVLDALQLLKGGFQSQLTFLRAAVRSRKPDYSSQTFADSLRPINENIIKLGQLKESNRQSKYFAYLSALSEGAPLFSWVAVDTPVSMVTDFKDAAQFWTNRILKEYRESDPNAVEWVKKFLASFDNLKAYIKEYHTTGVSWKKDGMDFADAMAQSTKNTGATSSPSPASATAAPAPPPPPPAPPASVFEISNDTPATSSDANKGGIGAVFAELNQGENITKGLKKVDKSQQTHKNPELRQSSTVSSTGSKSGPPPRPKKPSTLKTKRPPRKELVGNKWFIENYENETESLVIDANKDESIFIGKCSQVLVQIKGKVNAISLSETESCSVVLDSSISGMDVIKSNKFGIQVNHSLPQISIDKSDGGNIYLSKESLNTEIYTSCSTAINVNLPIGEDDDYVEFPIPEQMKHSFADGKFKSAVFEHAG

In the case of Profilin Pfy1 (from UniProt P07274), the Kd in data set [1] is 100 nM.

In the case of Srv2 (from UniProt P17555), in data set [2], the dissociation constant (Kd) is 18 nM.
